# B1: Nkd1-BirA* [murine] / DVL1 [human (endogenous in Flp-In-T-REx-293)] (parent)
# chain 1: MGKLHSKPAAVCKRRESPEGDSFAVSAAWARKGIEEWIGRQRCPGSVSGPRQLRLAGTVGRGTRELVGDTSREALGEEDEDDFPLEVALPPEKIDSLGSGDEKRMERLSEPGQASKKQLKFEELQCDVSVEEDSRQEWTFTLYDFDNNGKVTREDITSLLHTIYEVVDSSVNHSPTSSKTLRVKLTVAPDGSQSKRSVLFNHTDLQSTRPRADTKPAEELRGWEKKQRAPLRFQGDSHLEQPDCYHHCVDENIERRNHYLDLAGIENYTSQFGPGSPSVAQKSELPPRISNPTRSRSHEPEAAHIPHRRPQGVDPGSFHLLDTPFAKASELQQRLRGTQDGSKHFVRSPKAQGKNMGMGHGARGARSKPPLVPTTHTVSPSAHLATSPALLPTLAPLGHKKHKHRAKESQASCRGLQGPLAAGGSTVMGREQVRELPAVVVYESQAGQAVQRHEHHHHHEHHHHYHHFYQP
# chain 2: MAETKIIYHMDEEETPYLVKLPVAPERVTLADFKNVLSNRPVHAYKFFFKSMDQDFGVVKEEIFDDNAKLPCFNGRVVSWLVLAEGAHSDAGSQGTDSHTDLPPPLERTGGIGDSRPPSFHPNVASSRDGMDNETGTESMVSHRRERARRRNREEAARTNGHPRGDRRRDVGLPPDSASTALSSELESSSFVDSDEDGSTSRLSSSTEQSTSSRLIRKHKRRRRKQRLRQADRASSFSSITDSTMSLNIVTVTLNMERHHFLGISIVGQSNDRGDGGIYIGSIMKGGAVAADGRIEPGDMLLQVNDVNFENMSNDDAVRVLREIVSQTGPISLTVAKCWDPTPRSYFTVPRADPVRPIDPAAWLSHTAALTGALPRYGTSPCSSAVTRTSSSSLTSSVPGAPQLEEAPLTVKSDMSAVVRVMQLPDSGLEIRDRMWLKITIANAVIGADVVDWLYTHVEGFKERREARKYASSLLKHGFLRHTVNKITFSEQCYYVFGDLCSNLATLNLNSGSSGTSDQDTLAPLPHPAAPWPLGQGYPYQYPGPPPCFPPAYQDPGFSYGSGSTGSQQSEGSKSSGSTRSSRRAPGREKERRAAGAGGSGSESDHTAPSGVGSSWRERPAGQLSRGSSPRSQASATAPGLPPPHPTTKAYTVVGGPPGGPPVRELAAVPPELTGSRQSFQKAMGNPCEFFVDIM
# B2: Nkd1-BirA* [murine] / VANGL2 [human (endogenous in Flp-In-T-REx-293)] (parent)
# chain 1: B1 chain 1
# chain 2: MDTESQYSGYSYKSGHSRSSRKHRDRRDRHRSKSRDGGRGDKSVTIQAPGEPLLDNESTRGDERDDNWGETTTVVTGTSEHSISHDDLTRIAKDMEDSVPLDCSRHLGVAAGATLALLSFLTPLAFLLLPPLLWREELEPCGTACEGLFISVAFKLLILLLGSWALFFRRPKASLPRVFVLRALLMVLVFLLVVSYWLFYGVRILDARERSYQGVVQFAVSLVDALLFVHYLAVVLLELRQLQPQFTLKVVRSTDGASRFYNVGHLSIQRVAVWILEKYYHDFPVYNPALLNLPKSVLAKKVSGFKVYSLGEENSTNNSTGQSRAVIAAAARRRDNSHNEYYYEEAEHERRVRKRRARLVVAVEEAFTHIKRLQEEEQKNPREVMDPREAAQAIFASMARAMQKYLRTTKQQPYHTMESILQHLEFCITHDMTPKAFLERYLAAGPTIQYHKERWLAKQWTLVSEEPVTNGLKDGIVFLLKRQDFSLVVSTKKVPFFKLSEEFVDPKSHKFVMRLQSETSV
# B3: Nkd1-BirA* [murine] / NBR1 [human (endogenous in Flp-In-T-REx-293)] (parent)
# chain 1: B1 chain 1
# chain 2: MEPQVTLNVTFKNEIQSFLVSDPENTTWADIEAMVKVSFDLNTIQIKYLDEENEEVSINSQGEYEEALKMAVKQGNQLQMQVHEGHHVVDEAPPPVVGAKRLAARAGKKPLAHYSSLVRVLGSDMKTPEDPAVQSFPLVPCDTDQPQDKPPDWFTSYLETFREQVVNETVEKLEQKLHEKLVLQNPSLGSCPSEVSMPTSEETLFLPENQFSWHIACNNCQRRIVGVRYQCSLCPSYNICEDCEAGPYGHDTNHVLLKLRRPVVGSSEPFCHSKYSTPRLPAALEQVRLQKQVDKNFLKAEKQRLRAEKKQRKAEVKELKKQLKLHRKIHLWNSIHGLQSPKSPLGRPESLLQSNTLMLPLQPCTSVMPMLSAAFVDENLPDGTHLQPGTKFIKHWRMKNTGNVKWSADTKLKFMWGNLTLASTEKKDVLVPCLKAGHVGVVSVEFIAPALEGTYTSHWRLSHKGQQFGPRVWCSIIVDPFPSEESPDNIEKGMISSSKTDDLTCQQEETFLLAKEERQLGEVTEQTEGTAACIPQKAKNVASERELYIPSVDLLTAQDLLSFELLDINIVQELERVPHNTPVDVTPCMSPLPHDSPLIEKPGLGQIEEENEGAGFKALPDSMVSVKRKAENIASVEEAEEDLSGTQFVCETVIRSLTLDAAPDHNPPCRQKSLQMTFALPEGPLGNEKEEIIHIAEEEAVMEEEEDEEDEEEEDELKDEVQSQSSASSEDYIIILPECFDTSRPLGDSMYSSALSQPGLERGAEGKPGVEAGQEPAEAGERLPGGENQPQEHSISDILTTSQTLETVPLIPEVVELPPSLPRSSPCVHHHGSPGVDLPVTIPEVSSVPDQIRGEPRGSSGLVNSRQKSYDHSRHHHGSSIAGGLVKGALSVAASAYKALFAGPPVTAQPIISEDQTAALMAHLFEMGFCDRQLNLRLLKKHNYNILQVVTELLQLNNNDWYSQRY
# Variants of: B1
# Assay: BioID proximity labeling (mass spectrometry)
# Details: with DVL1 [human (endogenous in Flp-In-T-REx-293)]; +Wnt3a
row,Variant,response (unweighted spectral counts)
1,chain 1 MAKLHSKPAAVCKRRESPEGDSFAVSAAWARKGIEEWIGRQRCPGSVSGPRQLRLAGTVGRGTRELVGDTSREALGEEDEDDFPLEVALPPEKIDSLGSGDEKRMERLSEPGQASKKQLKFEELQCDVSVEEDSRQEWTFTLYDFDNNGKVTREDITSLLHTIYEVVDSSVNHSPTSSKTLRVKLTVAPDGSQSKRSVLFNHTDLQSTRPRADTKPAEELRGWEKKQRAPLRFQGDSHLEQPDCYHHCVDENIERRNHYLDLAGIENYTSQFGPGSPSVAQKSELPPRISNPTRSRSHEPEAAHIPHRRPQGVDPGSFHLLDTPFAKASELQQRLRGTQDGSKHFVRSPKAQGKNMGMGHGARGARSKPPLVPTTHTVSPSAHLATSPALLPTLAPLGHKKHKHRAKESQASCRGLQGPLAAGGSTVMGREQVRELPAVVVYESQAGQAVQRHEHHHHHEHHHHYHHFYQP [chain 1 G2A],127

# Variants of: B2
# Assay: BioID proximity labeling (mass spectrometry)
# Details: with VANGL2 [human (endogenous in Flp-In-T-REx-293)]; +Wnt3a
row,Variant,response (unweighted spectral counts)
1,chain 1 MAKLHSKPAAVCKRRESPEGDSFAVSAAWARKGIEEWIGRQRCPGSVSGPRQLRLAGTVGRGTRELVGDTSREALGEEDEDDFPLEVALPPEKIDSLGSGDEKRMERLSEPGQASKKQLKFEELQCDVSVEEDSRQEWTFTLYDFDNNGKVTREDITSLLHTIYEVVDSSVNHSPTSSKTLRVKLTVAPDGSQSKRSVLFNHTDLQSTRPRADTKPAEELRGWEKKQRAPLRFQGDSHLEQPDCYHHCVDENIERRNHYLDLAGIENYTSQFGPGSPSVAQKSELPPRISNPTRSRSHEPEAAHIPHRRPQGVDPGSFHLLDTPFAKASELQQRLRGTQDGSKHFVRSPKAQGKNMGMGHGARGARSKPPLVPTTHTVSPSAHLATSPALLPTLAPLGHKKHKHRAKESQASCRGLQGPLAAGGSTVMGREQVRELPAVVVYESQAGQAVQRHEHHHHHEHHHHYHHFYQP [chain 1 G2A],3

# Variants of: B3
# Assay: BioID proximity labeling (mass spectrometry)
# Details: with NBR1 [human (endogenous in Flp-In-T-REx-293)]; +Wnt3a
row,Variant,response (unweighted spectral counts)
1,chain 1 MAKLHSKPAAVCKRRESPEGDSFAVSAAWARKGIEEWIGRQRCPGSVSGPRQLRLAGTVGRGTRELVGDTSREALGEEDEDDFPLEVALPPEKIDSLGSGDEKRMERLSEPGQASKKQLKFEELQCDVSVEEDSRQEWTFTLYDFDNNGKVTREDITSLLHTIYEVVDSSVNHSPTSSKTLRVKLTVAPDGSQSKRSVLFNHTDLQSTRPRADTKPAEELRGWEKKQRAPLRFQGDSHLEQPDCYHHCVDENIERRNHYLDLAGIENYTSQFGPGSPSVAQKSELPPRISNPTRSRSHEPEAAHIPHRRPQGVDPGSFHLLDTPFAKASELQQRLRGTQDGSKHFVRSPKAQGKNMGMGHGARGARSKPPLVPTTHTVSPSAHLATSPALLPTLAPLGHKKHKHRAKESQASCRGLQGPLAAGGSTVMGREQVRELPAVVVYESQAGQAVQRHEHHHHHEHHHHYHHFYQP [chain 1 G2A],24

# Source: paper PMC7581431
